The data set deals with the molecule itself. As to the kind of experiment: aggregation assay of S2 cells transfected with fasciclin IV (homophilic adhesion). The source says:
To ask whether fasciclin IV can function as a homophilic cell adhesion molecule, the fasciclin IV cDNA with the complete ORF was placed under the control of the inducible metallothionein promoter (Bunch et al. 1988). transfected into S2 cells, and assayed for its ability to promote adhesion in normally non-adhesive S2 cells. Following induction with copper, fasciclin IV was synthesized in these S2 cells as shown by Western blot analysis and cell surface staining of induced S2 cells with the polyclonal antiserum described above.
A restriction fragment containing the full length fasciclin IV cDNA was cloned into pRmHa-3 (Bunch et al, 1988) and co-transformed into Drosophila S2 cells (Schneider, 1972) with the plasmid pPC4 (Jokerst et al., 1989), which confers a-amanitin resistance. S2 cells were transformed using the Lipofectin Reagent and recommended protocol (BRL) with minor modifications. All other S2 cell manipulations are essentially as described (Snow et al., 1989), including adhesion assays. Fasciclin IV expression in transformed cell lines was induced for adhesion assays and histology by adding CuSO₄ to 0.7 mM and incubating for at least 48 hrs. […] Amount of protein per lane in each sample loaded: fasciclin IV protein, ˜5 ng; S2 cell membranes, […]; grasshopper membranes […]. […]

B1: Grasshopper fasciclin IV (now called G-Semaphorin I) (other)
chain: WVNDVSPKMYVQFGEERVQRFLGNESHKDHFKLLEKDHNSLLVGARNIVYNISLRDLTEFTEQRIEWHSSGAHRELCYLKGKSEDDCQNYIRVLAKIDDDRVLICGTNAYKPLCRHYALKDGDYVVEKEYEGRGLCPFDPDHNSTAIYSEGQLYSATVADFSGTDPLIYRGPLRTERSDLKQLNAPNFVNTMEYNDFIFFFFRETAVEYINCGKAIYSRVARVCKHDKGGPHQGGDRWTSFLKSRLNCSVPGDYPFYFNEIQSTSDIIEGNYGGQVEKLIYGVFTTPVNSIGGSAVCAFSMKSILESFDGPFKEQETMNSNWLAVPSLKVPEPRPGQCVNDSRTLPDVSVNFVKSHTLMDEAVPAFFTRPILIRISLQYRFTKIAVDQQVRTPDGKAYDVLFIGTDDGKVIKALNSASFDSSDTVDSVVIEELQVLPPGVPVKNLYVVRMDGDDSKLVVVSDDEILAIKLHRCGSDKITNCRECVSLQDPYCAWDNVELKCTAVGSPDWSAGKRRFIQNISLGEHKACGGRPQTEIVASPVPTQPTTKSSGDPVHSIHQAEFEPEIDNEIVIGVDDSNVIPNTLAEINHAGSKLPSSQEKLPIYTAETLTIAIVTSCLGALVVGFISGFLFSRRCRGEDYTDMPFPDQRHQLNRLTEAGLNADSPYLPPCANNKAAINLVLNVPPKNANGKNANSSAENKPIQKVKKTYI
modifications: N-linked oligosaccharides (shown by N-Glycanase treatment)
notes: also called 6F8 antigen; grasshopper Semaphorin I
As to B1, the binding result is given as “no binding”.
